Paper PMC10148881, “Recognition of an Ala-rich C-degron by the E3 ligase Pirh2” (Nature Communications, 2023)

T1: Pirh2 NTD + RING (residues 1–189) (human, UniProt Q96PM5 1-189)
T1 construct: human Pirh2 (Rchy1), NTD + RING, residues 1–189; source: E. coli BL21 (DE3), purified (Ni-NTA, TEV cleavage, SEC); not shown: 8xHis-SUMO, N-terminal, cleaved
T1 sequence (looked up): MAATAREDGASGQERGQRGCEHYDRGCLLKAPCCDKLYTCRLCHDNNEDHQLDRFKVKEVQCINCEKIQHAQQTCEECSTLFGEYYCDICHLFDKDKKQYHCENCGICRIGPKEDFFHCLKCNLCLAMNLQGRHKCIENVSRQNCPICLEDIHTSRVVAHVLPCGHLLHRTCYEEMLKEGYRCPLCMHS

T2: full-length Pirh2 (residues 1–261) (human, UniProt Q96PM5 1-261)
T2 construct: human Pirh2 (Rchy1, RING finger and CHY zinc finger domain-containing protein 1), residues 1–261; Cloned into pET28-MKH8SUMO; the tag was cut off with TEV protease; also called Rchy1; p53-induced RING-H2 protein; source: E. coli BL21 (DE3), purified (Ni-NTA, TEV cleavage, SEC); not shown: 8xHis-SUMO, N-terminal, cleaved
T2 sequence (looked up): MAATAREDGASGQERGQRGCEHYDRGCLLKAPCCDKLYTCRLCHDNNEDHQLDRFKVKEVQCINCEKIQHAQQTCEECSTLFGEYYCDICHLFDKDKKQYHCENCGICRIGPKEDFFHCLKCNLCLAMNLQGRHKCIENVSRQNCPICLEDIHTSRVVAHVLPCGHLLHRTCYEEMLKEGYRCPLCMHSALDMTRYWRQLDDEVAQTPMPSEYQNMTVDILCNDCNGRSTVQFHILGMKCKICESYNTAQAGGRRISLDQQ

T3: Pirh2 NTD (residues 1–137) (human, UniProt Q96PM5 1-137)
T3 construct: human Pirh2 (Rchy1), NTD, residues 1–137; also called CHY zinc finger; source: E. coli BL21 (DE3), purified (Ni-NTA, TEV cleavage, SEC); not shown: 8xHis-SUMO, N-terminal, cleaved
T3 sequence (looked up): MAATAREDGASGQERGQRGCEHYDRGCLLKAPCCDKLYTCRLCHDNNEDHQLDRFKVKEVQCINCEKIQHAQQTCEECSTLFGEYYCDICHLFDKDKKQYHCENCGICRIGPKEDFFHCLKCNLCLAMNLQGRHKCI


Legend:
Assay in all cases: ITC; peptides (0.6–1.0 mM) titrated into the cell with 180–220 μM protein at 16 °C; 20 mM Tris-HCl pH 7.5, 150 mM NaCl, 10 μM Zn2+; one-site binding model
Conditions in all cases: both partners purified
[1] = target: T1, Pirh2 NTD + RING (residues 1–189)
[2] = target: T2, full-length Pirh2 (residues 1–261)
[3] = target: T3, Pirh2 NTD (residues 1–137)

| Kd [1] [µM] | Kd [2] [nM] | Kd [3] [µM] | Binder |
| --- | --- | --- | --- |
| 0.5 | 900 | 5.5 | YKTSAAAAAA (decapeptide with a C-terminal six-Ala degron and a free C-terminus; also called decapeptide containing the Ala6/C-degron; six-Ala peptide; source: synthetic peptide) [Ala6/C-degron peptide (sequence: YKTSAAAAAA)] |
| 15 |  |  | YKTSAAAATA [Ala6/C-degron peptide with the threonine mutation of Ala-2] |
